The target in the assay is GST-TFIIB fusion protein (UniProt Q00403). Put plainly: pull-down.
UniProt Q00403, sequence (Q00403 whole entry, the tested form may be a part): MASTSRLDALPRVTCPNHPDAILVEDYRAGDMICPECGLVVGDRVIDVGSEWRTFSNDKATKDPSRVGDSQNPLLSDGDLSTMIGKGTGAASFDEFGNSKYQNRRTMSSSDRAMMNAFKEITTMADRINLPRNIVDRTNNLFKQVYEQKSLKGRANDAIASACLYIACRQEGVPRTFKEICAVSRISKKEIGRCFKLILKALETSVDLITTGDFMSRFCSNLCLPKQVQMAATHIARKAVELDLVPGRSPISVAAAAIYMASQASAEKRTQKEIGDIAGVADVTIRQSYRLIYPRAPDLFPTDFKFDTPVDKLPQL

“35S-IR2P(78-397)-NH (domain or fragment)”: the percent of input precipitated is 12 % of input.

Consider “35S-IR2P(78-438)-NH (domain or fragment)”, for which the percent of input precipitated was 13 % of input.

For the origin of these results see article PMC3388945.
